Measured values published in article PMC5798299.

Tests used:
[1] = biological target: BG505 SOSIP.664-D7324 A316W trimer (unpurified, 293T) (HIV-1 (clade A, BG505)); test: native gel or EMSA; BN-PAGE of unpurified Env proteins in 293T culture supernatants, Western blot with bNAb 2G12
[2] = biological target: BG505 SOSIP.664-D7324 R308L trimer (unpurified, 293T) (HIV-1 (clade A, BG505)); test: as above
[3] = biological target: BG505 SOSIP.664-D7324 S306L trimer (unpurified, 293T) (HIV-1 (clade A, BG505)); test: as above
[4] = biological target: BG505 SOSIP.664-D7324 trimer (PGT145-purified, 293F) (HIV-1 (clade A, BG505)); test: native gel or EMSA; BN-PAGE of PGT145-purified trimers, Coomassie Blue stain
[5] = biological target: BG505 SOSIP.664-D7324 trimer (unpurified, 293T) (HIV-1 (clade A, BG505)); test: native gel or EMSA; BN-PAGE of unpurified Env proteins in 293T culture supernatants, Western blot with bNAb 2G12
[6] = biological target: BG505 SOSIP.v4.1 S306L/R308L-D7324 trimer (HIV-1 (clade A, BG505)); test: native gel or EMSA; BN-PAGE of PGT145-purified trimers, Coomassie Blue stain
[7] = biological target: BG505 SOSIP.v4.1-D7324 trimer (HIV-1 (clade A, BG505)); test: as above
[8] = biological target: BG505 SOSIP.v5.2 S306L/R308L-D7324 trimer (HIV-1 (clade A, BG505)); test: as above
[9] = biological target: BG505 SOSIP.v5.2-D7324 trimer (HIV-1 (clade A, BG505)); test: as above

## BG505 SOSIP.664-D7324 A316W trimer (unpurified, 293T) (complex)
[1]
  stoichiometry N: 3

## BG505 SOSIP.664-D7324 R308L trimer (unpurified, 293T) (complex)
[2]
  stoichiometry N: 3

## BG505 SOSIP.664-D7324 S306L trimer (unpurified, 293T) (complex)
[3]
  stoichiometry N: 3

## BG505 SOSIP.664-D7324 trimer (PGT145-purified, 293F) (complex)
[4]
  stoichiometry N: 3

## BG505 SOSIP.664-D7324 trimer (unpurified, 293T) (complex)
[5]
  stoichiometry N: 3

## BG505 SOSIP.v4.1 S306L/R308L-D7324 trimer (complex)
[6]
  stoichiometry N: 3

## BG505 SOSIP.v4.1-D7324 trimer (complex)
[7]
  stoichiometry N: 3

## BG505 SOSIP.v5.2 S306L/R308L-D7324 trimer (complex)
[8]
  stoichiometry N: 3

## BG505 SOSIP.v5.2-D7324 trimer (complex)
[9]
  stoichiometry N: 3
